Entries after “also recorded” stand apart in the source; their conditions may differ.
Tests used:
[1] = biological target: T1, binding of MerTK with TULP1 (Homo sapiens, UniProt Q12866); assay: Test 6: ligand binding inhibition ELISA, MerTK with TULP1; conditions: human MerTK 5 μg/ml immobilized; biotinylated TULP1 40 nM; FIGS. 14 and 16
T1 construct: purchased R&D Systems
T1 sequence (Q12866 26-499 limits assumed): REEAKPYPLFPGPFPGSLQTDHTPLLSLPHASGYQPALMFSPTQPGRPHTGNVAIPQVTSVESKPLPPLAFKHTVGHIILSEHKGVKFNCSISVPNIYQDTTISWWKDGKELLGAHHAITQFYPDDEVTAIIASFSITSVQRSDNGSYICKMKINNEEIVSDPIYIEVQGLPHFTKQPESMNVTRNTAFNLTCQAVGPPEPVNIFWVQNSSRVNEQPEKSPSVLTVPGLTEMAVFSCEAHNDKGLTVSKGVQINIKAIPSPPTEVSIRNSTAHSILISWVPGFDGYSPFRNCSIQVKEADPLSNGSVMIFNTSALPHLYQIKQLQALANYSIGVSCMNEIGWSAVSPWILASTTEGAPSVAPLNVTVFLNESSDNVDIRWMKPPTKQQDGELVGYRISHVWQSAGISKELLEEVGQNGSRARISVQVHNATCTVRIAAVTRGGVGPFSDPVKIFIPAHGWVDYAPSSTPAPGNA
Procedure: (§1) “20A77” and “24A1” were evaluated for the ability to inhibit binding of MerTK with various ligands. The MerTK ligands used were human Gas6 (R&D Systems) and human TULP1 (abcam plc.) which were respectively biotinylated using “Biotin Labeling Kit-NH” (Dojindo Laboratories Co., Ltd.). […] TULP1 is a ligand correlated with ocular toxicity, and an antibody having an activity to inhibit binding of MerTK with TULP1 may have ocular toxicity. Thus, an antibody having high inhibitory activity of binding to Gas6 and low inhibitory activity of binding to TULP1 may be an efficacious anti-tumor agent having low ocular toxicity.
(§2) The ligand binding inhibition test was carried out as indicated below. First, human MerTK (R&D Systems) was added to an ELISA plate (Nunc) at a concentration of 5 μg/ml and immobilized overnight at room temperature. After removing the immobilization solution, 1% BSA/PBS was added for blocking reaction and left to stand at room temperature for 1 hour. After the blocking, the plate was washed with 0.05% Tween 20/PBS and an antibody solution was added for primary reaction at room temperature for 1 hour. […] After washing, a chromogenic substrate solution of TMB (Dako) was added for chromogenic reaction for 20 minutes, 1 N sulfuric acid was added to terminate the reaction and the absorbance was measured at 450 nm.

[2] = biological target: T2, human MerTK on cells (EL4 cells stably expressing human MerTK); human melanoma cell line G361 intrinsically … (human, UniProt Q12866 21-999); assay: inferred from inhibition of Gas6-induced MerTK phosphorylation on hMerTK-EL4 cells
T2 construct: whole, on cells; also called hMerTK-EL4
T2 sequence (looked up): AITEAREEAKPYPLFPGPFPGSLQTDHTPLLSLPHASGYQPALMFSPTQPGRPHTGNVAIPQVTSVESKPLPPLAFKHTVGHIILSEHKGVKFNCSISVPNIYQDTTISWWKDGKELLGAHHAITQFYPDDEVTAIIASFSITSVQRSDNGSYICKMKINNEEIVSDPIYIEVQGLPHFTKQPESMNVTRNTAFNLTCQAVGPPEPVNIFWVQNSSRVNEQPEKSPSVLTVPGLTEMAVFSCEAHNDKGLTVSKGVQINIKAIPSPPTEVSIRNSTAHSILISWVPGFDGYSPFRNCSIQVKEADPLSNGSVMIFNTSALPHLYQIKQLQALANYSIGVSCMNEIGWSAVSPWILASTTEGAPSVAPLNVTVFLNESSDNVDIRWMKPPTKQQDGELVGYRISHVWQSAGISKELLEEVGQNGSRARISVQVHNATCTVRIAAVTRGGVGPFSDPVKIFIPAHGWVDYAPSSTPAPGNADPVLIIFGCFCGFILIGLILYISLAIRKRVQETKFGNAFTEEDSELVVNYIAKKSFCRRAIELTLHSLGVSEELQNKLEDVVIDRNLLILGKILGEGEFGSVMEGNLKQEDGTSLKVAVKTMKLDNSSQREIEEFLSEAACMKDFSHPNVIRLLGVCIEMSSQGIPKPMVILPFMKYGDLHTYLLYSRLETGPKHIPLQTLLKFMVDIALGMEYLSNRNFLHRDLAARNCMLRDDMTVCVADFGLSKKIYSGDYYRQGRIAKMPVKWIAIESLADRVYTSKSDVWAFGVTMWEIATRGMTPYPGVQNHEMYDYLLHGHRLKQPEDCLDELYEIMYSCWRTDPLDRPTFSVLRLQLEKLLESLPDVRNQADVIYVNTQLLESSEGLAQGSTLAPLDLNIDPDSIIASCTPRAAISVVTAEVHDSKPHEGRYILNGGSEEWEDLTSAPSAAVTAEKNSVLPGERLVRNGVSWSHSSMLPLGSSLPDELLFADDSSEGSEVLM
Procedure: The cells (hMerTK-EL4) stably expressing human MerTK were cultured in a “DMEM high glucose medium” (Thermo Fisher Scientific Inc.) containing 10% FBS. After the cultivation, the cells were washed in PBS, suspended in a serum-free medium, plated in a 96-well plate at 1×10⁶ cells/well and incubated at 37° C. for 3 hours. After the incubation, the respective clones were added, the hMerTK-EL4 was allowed to react for 1 hour, stimulated with 200 nM human Gas6 (R&D Systems) for 10 minutes and centrifuged and collected. The collected hMerTK-EL4 was lysed in a cell lysis solution, and the level of the phosphorylated MerTK protein in the lysate was determined using “Human Phospho-Mer DuoSet IC ELISA” (R&D Systems). The cell lysis solution used contained 1% “IGEPAL CA-630” (SIGMA) and 1×concentration of “Halt Protease and Phosphatase Inhibitor Single-Use Inhibitor Cocktail” (Thermo Fisher Scientific Inc.) added to MilliQ water.
Among these 14 clones, “20A77” and “24A1” were selected as clones showing particularly high inhibitory activity and subjected to the following tests.

human MerTK = biological target: T3, human MerTK (Homo sapiens, UniProt Q12866); assay: MerTK phosphorylation inhibition test in hMerTK-EL4 cells stimulated with human Gas6; format: cell-based; set-up: expressed in transfected cells; host or cells: mouse lymphoma cell line EL4 (hMerTK-EL4); conditions: hMerTK-EL4, antibody 1 hour, then 200 nM human Gas6 for 10 minutes; phospho-Mer ELISA; FIG. 1
T3 sequence (Q12866 21-999): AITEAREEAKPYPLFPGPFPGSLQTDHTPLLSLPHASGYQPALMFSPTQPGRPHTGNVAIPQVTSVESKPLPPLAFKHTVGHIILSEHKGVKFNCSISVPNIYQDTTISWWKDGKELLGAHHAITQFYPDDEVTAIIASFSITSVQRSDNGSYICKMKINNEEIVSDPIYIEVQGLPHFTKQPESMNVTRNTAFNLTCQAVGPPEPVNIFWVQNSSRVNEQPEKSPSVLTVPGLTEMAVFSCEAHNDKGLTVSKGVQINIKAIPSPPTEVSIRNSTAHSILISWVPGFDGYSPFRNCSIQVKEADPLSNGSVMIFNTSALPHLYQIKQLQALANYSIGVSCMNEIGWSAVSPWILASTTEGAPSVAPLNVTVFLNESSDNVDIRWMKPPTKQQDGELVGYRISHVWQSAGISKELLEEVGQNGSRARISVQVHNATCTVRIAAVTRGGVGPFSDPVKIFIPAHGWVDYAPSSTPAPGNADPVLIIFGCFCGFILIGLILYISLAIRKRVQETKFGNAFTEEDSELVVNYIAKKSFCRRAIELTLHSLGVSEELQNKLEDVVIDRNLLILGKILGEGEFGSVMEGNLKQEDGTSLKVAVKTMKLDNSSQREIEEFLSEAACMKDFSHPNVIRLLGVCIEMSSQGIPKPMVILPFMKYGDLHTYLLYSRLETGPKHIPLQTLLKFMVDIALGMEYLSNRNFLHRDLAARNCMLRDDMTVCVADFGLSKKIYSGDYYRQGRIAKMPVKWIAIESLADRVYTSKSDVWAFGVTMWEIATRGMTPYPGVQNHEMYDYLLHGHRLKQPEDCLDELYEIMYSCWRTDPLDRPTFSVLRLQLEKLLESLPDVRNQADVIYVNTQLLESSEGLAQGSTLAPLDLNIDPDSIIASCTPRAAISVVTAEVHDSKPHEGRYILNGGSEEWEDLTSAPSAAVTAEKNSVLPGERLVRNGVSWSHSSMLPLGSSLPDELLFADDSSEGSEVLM
Procedure: On the basis of the procedures indicated below, the clones were evaluated for MerTK phosphorylation inhibitory activity. Higher activity means higher binding ability to MerTK.
The cells (hMerTK-EL4) stably expressing human MerTK were cultured in a “DMEM high glucose medium” (Thermo Fisher Scientific Inc.) containing 10% FBS. After the cultivation, the cells were washed in PBS, suspended in a serum-free medium, plated in a 96-well plate at 1×10^6 cells/well and incubated at 37° C. for 3 hours. After the incubation, the respective clones were added, the hMerTK-EL4 was allowed to react for 1 hour, stimulated with 200 nM human Gas6 (R&D Systems) for 10 minutes and centrifuged and collected. The collected hMerTK-EL4 was lysed in a cell lysis solution, and the level of the phosphorylated MerTK protein in the lysate was determined using “Human Phospho-Mer DuoSet IC ELISA” (R&D Systems). The cell lysis solution used contained 1% “IGEPAL CA-630” (SIGMA) and 1×concentration of “Halt Protease and Phosphatase Inhibitor Single-Use Inhibitor Cocktail” (Thermo Fisher Scientific Inc.) added to MilliQ water.

[3] = biological target: T4, binding of MerTK with Gas6 (Homo sapiens, UniProt Q12866); assay: Test 6: ligand binding inhibition ELISA, MerTK with Gas6; conditions: human MerTK 5 μg/ml immobilized; biotinylated Gas6 10 nM; FIGS. 13 and 15
T4 construct: purchased R&D Systems
T4 sequence (Q12866 26-499 limits assumed): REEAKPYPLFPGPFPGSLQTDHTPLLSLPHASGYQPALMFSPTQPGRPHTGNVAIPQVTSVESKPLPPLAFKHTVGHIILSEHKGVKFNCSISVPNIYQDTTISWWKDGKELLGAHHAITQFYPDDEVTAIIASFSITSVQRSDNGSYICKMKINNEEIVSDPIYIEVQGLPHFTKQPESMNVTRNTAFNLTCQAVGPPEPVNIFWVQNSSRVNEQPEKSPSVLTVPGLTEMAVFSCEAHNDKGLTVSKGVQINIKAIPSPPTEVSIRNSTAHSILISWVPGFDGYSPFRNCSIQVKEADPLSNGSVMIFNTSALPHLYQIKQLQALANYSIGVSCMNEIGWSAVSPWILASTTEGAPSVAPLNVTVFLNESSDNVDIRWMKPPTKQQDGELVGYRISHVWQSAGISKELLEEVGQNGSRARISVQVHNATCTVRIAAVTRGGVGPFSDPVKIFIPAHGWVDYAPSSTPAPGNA
Procedure: as §1, §2

binding result [2]: binds
B1: 20A77 (antibody, V domains shown)
VH: QVQLQQPGTELVKPGASVKLSCRASGNTFTSYWMHWVKQRPGQGLEWIGNINPSNGGTNYNEKFKSKATLTVDKSSSTAYMQLSSLTSEDSAVYYCARLNYYGFDGFAFWGQGTLVTVSA
VL: DIKMTQSPSSMYASLGERVTITCKASQDINSYLSWFQQKPGKSPKTLIYRANRLVDGVPSRFSGSGSGQDYSLTISSLEYEDMGIYYCLQYDEFPFTFGSGTKLEIK
notes: Mouse monoclonal antibody from a hybridoma clone (MerTK knockout mice); In Test 2 (1) the hybridoma clone was added
inhibition of binding of TULP1 with MerTK [1]: did not inhibit binding of TULP1 with MerTK | MerTK phosphorylation inhibitory activity (human MerTK): inhibited binding of Gas6 with MerTK and MerTK phosphorylation in a concentration dependent manner | inhibition of binding of Gas6 with MerTK [3]: inhibited binding of Gas6 with MerTK; also recorded: strongly inhibited binding of Gas6 with MerTK

Reference: patent US20250326862A1, “Antibody or Fragment Thereof Binding Specifically to Mertk, and Anti-Tumor Agent” (Chiome Bioscience Inc., priority 2021, published 2025)
